Test results published in patent US20100260668A1 (published 2010).

B1: DVD516 (bispecific antibody, human IgG1, lambda)
heavy: not shown
light: DIQMTQSPSSLSASVGDRVTITCRASQVIRRSLAWYQQKPGKAPKLLIYAASNLASGVPSRFSGSGSGTDFTLTISSLQPEDFATYYCQQSNTSPLTFGQGTKVEIKRTVAAPQAVVTQESALTTSPGETVTLTCRSSTGAVTTSNYANWVQEKPDHLFTGLIGGTNNRAPGVPARFSGSLIGDKAALTITGAQTEDEAIYFCALWYSNHWVFGGGTKLTVLGQPKAAPSVTLFPPSSEELQANKATLVCLISDFYPGAVTVAWKADSSPVKAGVETTTPSKQSNNKYAASSYLSLTPEQWKSHRSYSCQVTHEGSTVEKTVAPTECS
notes: DVD-Ig; N-term; VD AB071 (VEGF), C-term; VD AB073 (DLL4); HC linker short, LC linker short; also called DVD516H; DVD516L
B2: DVD528 (bispecific antibody, human IgG1, lambda)
heavy: not shown
light: DIQMTQSPSSLSASVGDRVTITCRASQVIRRSLAWYQQKPGKAPKLLIYAASNLASGVPSRFSGSGSGTDFTLTISSLQPEDFATYYCQQSNTSPLTFGQGTKVEIKRTVAAPQAVVTQESALTTSPGETVTLTCRSSTGAVTTSNYANWVQEKPDHLFTGLIGGTNNRAPGVPARFSGSLIGDKAALTITGAQTEDEAIYFCALWYSNHWVFGGGTKLTVLGQPKAAPSVTLFPPSSEELQANKATLVCLISDFYPGAVTVAWKADSSPVKAGVETTTPSKQSNNKYAASSYLSLTPEQWKSHRSYSCQVTHEGSTVEKTVAPTECS
notes: DVD-Ig; N-term; VD AB071 (VEGF), C-term; VD AB073 (DLL4); HC linker long, LC linker short; also called DVD528H; DVD528L
B3: DVD492 (bispecific antibody, human IgG1, kappa)
heavy: not shown
light: DIQMTQSPSSLSASVGDRVTITCRASQVIRRSLAWYQQKPGKAPKLLIYAASNLASGVPSRFSGSGSGTDFTLTISSLQPEDFATYYCQQSNTSPLTFGQGTKVEIKRTVAAPDIQMTQSSSYLSVSLGGRVTITCKASDHINNWLAWYQQKPGNAPRLLISGATSLETGVPSRFSGSGSGKDYTLSITSLQTEDVATYYCQQYWSIPLTFGAGTKLELKRTVAAPSVFIFPPSDEQLKSGTASVVCLLNNFYPREAKVQWKVDNALQSGNSQESVTEQDSKDSTYSLSSTLTLSKADYEKHKVYACEVTHQGLSSPVTKSFNRGEC
notes: DVD-Ig; N-term; VD AB071 (VEGF), C-term; VD AB072 (DLL4); HC linker short, LC linker short; also called DVD492H; DVD492L
B4: DVD504 (bispecific antibody, human IgG1, kappa)
heavy: not shown
light: DIQMTQSPSSLSASVGDRVTITCRASQVIRRSLAWYQQKPGKAPKLLIYAASNLASGVPSRFSGSGSGTDFTLTISSLQPEDFATYYCQQSNTSPLTFGQGTKVEIKRTVAAPDIQMTQSSSYLSVSLGGRVTITCKASDHINNWLAWYQQKPGNAPRLLISGATSLETGVPSRFSGSGSGKDYTLSITSLQTEDVATYYCQQYWSIPLTFGAGTKLELKRTVAAPSVFIFPPSDEQLKSGTASVVCLLNNFYPREAKVQWKVDNALQSGNSQESVTEQDSKDSTYSLSSTLTLSKADYEKHKVYACEVTHQGLSSPVTKSFNRGEC
notes: DVD-Ig; N-term; VD AB071 (VEGF), C-term; VD AB072 (DLL4); HC linker long, LC linker short; also called DVD504H; DVD504L
B5: DVD452 (bispecific antibody, human IgG1, kappa, L234A L235A)
heavy: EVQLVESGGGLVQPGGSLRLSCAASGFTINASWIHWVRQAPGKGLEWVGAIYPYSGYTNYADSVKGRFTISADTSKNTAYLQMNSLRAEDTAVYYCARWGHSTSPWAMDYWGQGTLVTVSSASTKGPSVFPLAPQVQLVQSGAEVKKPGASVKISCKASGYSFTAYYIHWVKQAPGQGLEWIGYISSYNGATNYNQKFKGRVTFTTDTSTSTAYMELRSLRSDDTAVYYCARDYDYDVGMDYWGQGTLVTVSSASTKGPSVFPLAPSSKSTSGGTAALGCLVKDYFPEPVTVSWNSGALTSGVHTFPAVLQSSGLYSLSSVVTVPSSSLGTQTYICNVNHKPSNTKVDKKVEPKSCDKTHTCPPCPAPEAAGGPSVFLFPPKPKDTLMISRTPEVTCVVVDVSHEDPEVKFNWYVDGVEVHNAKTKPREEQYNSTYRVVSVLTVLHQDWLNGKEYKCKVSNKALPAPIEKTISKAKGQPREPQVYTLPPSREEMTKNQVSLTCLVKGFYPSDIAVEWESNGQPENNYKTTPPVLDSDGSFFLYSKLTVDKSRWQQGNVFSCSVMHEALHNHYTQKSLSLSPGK
light: DIQMTQSPSSLSASVGDRVTITCRASQVIRRSLAWYQQKPGKAPKLLIYAASNLASGVPSRFSGSGSGTDFTLTISSLQPEDFATYYCQQSNTSPLTFGQGTKVEIKRTVAAPSVFIFPPDIVMTQSPDSLAVSLGERATISCRASESVDNYGISFMKWFQQKPGQPPKLLIYAASNQGSGVPDRFSGSGSGTDFTLTISSLQAEDVAVYYCQQSKEVPWTFGGGTKVEIKRTVAAPSVFIFPPSDEQLKSGTASVVCLLNNFYPREAKVQWKVDNALQSGNSQESVTEQDSKDSTYSLSSTLTLSKADYEKHKVYACEVTHQGLSSPVTKSFNRGEC
notes: DVD-Ig; N-term; VD AB071 (VEGF), C-term; VD AB069 (DLL4); HC linker long, LC linker long; also called DVD452H; DVD452L
B6: DVD464 (bispecific antibody, human IgG1, kappa)
heavy: not shown
light: DIQMTQSPSSLSASVGDRVTITCRASQVIRRSLAWYQQKPGKAPKLLIYAASNLASGVPSRFSGSGSGTDFTLTISSLQPEDFATYYCQQSNTSPLTFGQGTKVEIKRTVAAPSVFIFPPDIVMTQSPDSLAVSLGERATISCRASESVDNYGISFMKWFQQKPGQPPKLLIYAASNQGSGVPDRFSGSGSGTDFTLTISSLQAEDVAVYYCQQSKEVPWTFGGGTKVEIKRTVAAPSVFIFPPSDEQLKSGTASVVCLLNNFYPREAKVQWKVDNALQSGNSQESVTEQDSKDSTYSLSSTLTLSKADYEKHKVYACEVTHQGLSSPVTKSFNRGEC
notes: DVD-Ig; N-term; VD AB071 (VEGF), C-term; VD AB069 (DLL4); HC linker short, LC linker long; also called DVD464H; DVD464L
B7: DVD522 (bispecific antibody, human IgG1, kappa, lambda, L234A L235A)
heavy: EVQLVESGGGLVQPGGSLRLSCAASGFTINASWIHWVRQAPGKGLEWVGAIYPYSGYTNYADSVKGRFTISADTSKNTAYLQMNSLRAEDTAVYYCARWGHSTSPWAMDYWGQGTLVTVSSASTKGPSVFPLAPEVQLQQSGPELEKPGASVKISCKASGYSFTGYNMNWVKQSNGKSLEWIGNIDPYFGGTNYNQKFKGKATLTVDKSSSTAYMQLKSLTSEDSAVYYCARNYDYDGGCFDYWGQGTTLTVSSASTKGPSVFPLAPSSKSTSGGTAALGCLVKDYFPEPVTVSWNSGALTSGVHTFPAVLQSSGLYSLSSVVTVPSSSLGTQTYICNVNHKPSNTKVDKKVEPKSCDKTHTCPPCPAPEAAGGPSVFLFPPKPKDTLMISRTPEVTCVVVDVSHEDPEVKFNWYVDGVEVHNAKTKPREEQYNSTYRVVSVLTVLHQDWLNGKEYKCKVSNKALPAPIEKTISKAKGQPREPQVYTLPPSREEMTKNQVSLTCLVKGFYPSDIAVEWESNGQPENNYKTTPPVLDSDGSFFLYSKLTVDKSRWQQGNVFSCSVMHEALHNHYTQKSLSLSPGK
light: DIQMTQSPSSLSASVGDRVTITCRASQVIRRSLAWYQQKPGKAPKLLIYAASNLASGVPSRFSGSGSGTDFTLTISSLQPEDFATYYCQQSNTSPLTFGQGTKVEIKRTVAAPSVFIFPPQAVVTQESALTTSPGETVTLTCRSSTGAVTTSNYANWVQEKPDHLFTGLIGGTNNRAPGVPARFSGSLIGDKAALTITGAQTEDEAIYFCALWYSNHWVFGGGTKLTVLGQPKAAPSVTLFPPSSEELQANKATLVCLISDFYPGAVTVAWKADSSPVKAGVETTTPSKQSNNKYAASSYLSLTPEQWKSHRSYSCQVTHEGSTVEKTVAPTECS
notes: DVD-Ig; N-term; VD AB071 (VEGF), C-term; VD AB073 (DLL4); HC linker long, LC linker long; also called DVD522H; DVD522L
B8: DVD534 (bispecific antibody, human IgG1, kappa, lambda, L234A L235A)
heavy: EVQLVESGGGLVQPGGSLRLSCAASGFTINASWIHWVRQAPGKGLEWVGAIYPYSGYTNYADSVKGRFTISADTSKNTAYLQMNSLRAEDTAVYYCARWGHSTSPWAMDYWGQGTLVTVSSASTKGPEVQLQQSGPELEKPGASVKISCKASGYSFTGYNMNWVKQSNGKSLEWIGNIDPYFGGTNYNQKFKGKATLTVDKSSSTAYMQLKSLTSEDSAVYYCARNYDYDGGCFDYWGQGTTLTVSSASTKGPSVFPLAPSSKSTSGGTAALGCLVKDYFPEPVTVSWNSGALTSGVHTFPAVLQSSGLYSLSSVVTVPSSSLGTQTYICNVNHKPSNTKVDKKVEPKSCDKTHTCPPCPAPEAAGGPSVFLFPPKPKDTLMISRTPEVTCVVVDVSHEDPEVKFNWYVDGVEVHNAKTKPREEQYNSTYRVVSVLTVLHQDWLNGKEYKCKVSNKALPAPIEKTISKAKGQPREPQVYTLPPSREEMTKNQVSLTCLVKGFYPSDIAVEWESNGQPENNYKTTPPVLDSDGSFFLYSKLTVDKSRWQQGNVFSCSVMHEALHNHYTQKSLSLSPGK
light: DIQMTQSPSSLSASVGDRVTITCRASQVIRRSLAWYQQKPGKAPKLLIYAASNLASGVPSRFSGSGSGTDFTLTISSLQPEDFATYYCQQSNTSPLTFGQGTKVEIKRTVAAPSVFIFPPQAVVTQESALTTSPGETVTLTCRSSTGAVTTSNYANWVQEKPDHLFTGLIGGTNNRAPGVPARFSGSLIGDKAALTITGAQTEDEAIYFCALWYSNHWVFGGGTKLTVLGQPKAAPSVTLFPPSSEELQANKATLVCLISDFYPGAVTVAWKADSSPVKAGVETTTPSKQSNNKYAASSYLSLTPEQWKSHRSYSCQVTHEGSTVEKTVAPTECS
notes: DVD-Ig; N-term; VD AB071 (VEGF), C-term; VD AB073 (DLL4); HC linker short, LC linker long; also called DVD534H; DVD534L
B9: DVD458 (bispecific antibody, human IgG1, kappa, L234A L235A)
heavy: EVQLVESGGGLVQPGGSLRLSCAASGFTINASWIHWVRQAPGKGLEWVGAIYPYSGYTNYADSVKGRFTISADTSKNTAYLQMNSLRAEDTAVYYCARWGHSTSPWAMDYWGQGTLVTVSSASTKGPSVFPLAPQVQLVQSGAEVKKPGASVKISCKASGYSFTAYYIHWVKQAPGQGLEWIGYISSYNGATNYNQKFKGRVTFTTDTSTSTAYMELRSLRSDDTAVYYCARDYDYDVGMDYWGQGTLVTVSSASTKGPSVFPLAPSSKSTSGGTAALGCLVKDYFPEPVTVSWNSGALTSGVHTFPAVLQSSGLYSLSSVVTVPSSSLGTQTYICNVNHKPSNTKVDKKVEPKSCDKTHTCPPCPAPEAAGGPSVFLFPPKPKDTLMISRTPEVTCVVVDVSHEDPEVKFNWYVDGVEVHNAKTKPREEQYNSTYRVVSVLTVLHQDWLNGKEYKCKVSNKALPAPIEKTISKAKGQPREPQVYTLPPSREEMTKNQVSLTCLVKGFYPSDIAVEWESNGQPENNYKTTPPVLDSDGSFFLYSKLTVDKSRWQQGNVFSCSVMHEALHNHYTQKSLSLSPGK
light: DIQMTQSPSSLSASVGDRVTITCRASQVIRRSLAWYQQKPGKAPKLLIYAASNLASGVPSRFSGSGSGTDFTLTISSLQPEDFATYYCQQSNTSPLTFGQGTKVEIKRTVAAPDIVMTQSPDSLAVSLGERATISCRASESVDNYGISFMKWFQQKPGQPPKLLIYAASNQGSGVPDRFSGSGSGTDFTLTISSLQAEDVAVYYCQQSKEVPWTFGGGTKVEIKRTVAAPSVFIFPPSDEQLKSGTASVVCLLNNFYPREAKVQWKVDNALQSGNSQESVTEQDSKDSTYSLSSTLTLSKADYEKHKVYACEVTHQGLSSPVTKSFNRGEC
notes: DVD-Ig; N-term; VD AB071 (VEGF), C-term; VD AB069 (DLL4); HC linker long, LC linker short; also called DVD458H; DVD458L
B10: DVD498 (bispecific antibody, human IgG1, kappa)
heavy: not shown
light: DIQMTQSPSSLSASVGDRVTITCRASQVIRRSLAWYQQKPGKAPKLLIYAASNLASGVPSRFSGSGSGTDFTLTISSLQPEDFATYYCQQSNTSPLTFGQGTKVEIKRTVAAPSVFIFPPDIQMTQSSSYLSVSLGGRVTITCKASDHINNWLAWYQQKPGNAPRLLISGATSLETGVPSRFSGSGSGKDYTLSITSLQTEDVATYYCQQYWSIPLTFGAGTKLELKRTVAAPSVFIFPPSDEQLKSGTASVVCLLNNFYPREAKVQWKVDNALQSGNSQESVTEQDSKDSTYSLSSTLTLSKADYEKHKVYACEVTHQGLSSPVTKSFNRGEC
notes: DVD-Ig; N-term; VD AB071 (VEGF), C-term; VD AB072 (DLL4); HC linker long, LC linker long; also called DVD498H; DVD498L
B11: DVD510 (bispecific antibody, human IgG1, kappa)
heavy: not shown
light: DIQMTQSPSSLSASVGDRVTITCRASQVIRRSLAWYQQKPGKAPKLLIYAASNLASGVPSRFSGSGSGTDFTLTISSLQPEDFATYYCQQSNTSPLTFGQGTKVEIKRTVAAPSVFIFPPDIQMTQSSSYLSVSLGGRVTITCKASDHINNWLAWYQQKPGNAPRLLISGATSLETGVPSRFSGSGSGKDYTLSITSLQTEDVATYYCQQYWSIPLTFGAGTKLELKRTVAAPSVFIFPPSDEQLKSGTASVVCLLNNFYPREAKVQWKVDNALQSGNSQESVTEQDSKDSTYSLSSTLTLSKADYEKHKVYACEVTHQGLSSPVTKSFNRGEC
notes: DVD-Ig; N-term; VD AB071 (VEGF), C-term; VD AB072 (DLL4); HC linker short, LC linker long; also called DVD510H; DVD510L
B12: DVD465 (bispecific antibody, human IgG1, kappa)
heavy: not shown
light: DIQMTQSPSSLSASVGDRVTITCRASQDVSTAVAWYQQKPGKAPKLLIYSASFLYSGVPSRFSGSGSGTDFTLTISSLQPEDFATTYYCQQSYTGTVTFGQGTKVEIKRTVAAPDIQMTQSPSSLSASVGDRVTITCRASQDVSTAVAWYQQKPGKAPKLLIYSASFLYSGVPSRFSGSGSGTDFTLTISSLQPEDFATYYCQQSYTTPPTFGQGTKVEIKRTVAAPSVFIFPPSDEQLKSGTASVVCLLNNFYPREAKVQWKVDNALQSGNSQESVTEQDSKDSTYSLSSTLTLSKADYEKHKVYACEVTHQGLSSPVTKSFNRGEC
notes: DVD-Ig; N-term; VD AB015 (DLL4), C-term; VD AB070 (VEGF); HC linker short, LC linker short; also called DVD465H; DVD465L
B13: DVD477 (bispecific antibody, human IgG1, kappa, L234A L235A)
heavy: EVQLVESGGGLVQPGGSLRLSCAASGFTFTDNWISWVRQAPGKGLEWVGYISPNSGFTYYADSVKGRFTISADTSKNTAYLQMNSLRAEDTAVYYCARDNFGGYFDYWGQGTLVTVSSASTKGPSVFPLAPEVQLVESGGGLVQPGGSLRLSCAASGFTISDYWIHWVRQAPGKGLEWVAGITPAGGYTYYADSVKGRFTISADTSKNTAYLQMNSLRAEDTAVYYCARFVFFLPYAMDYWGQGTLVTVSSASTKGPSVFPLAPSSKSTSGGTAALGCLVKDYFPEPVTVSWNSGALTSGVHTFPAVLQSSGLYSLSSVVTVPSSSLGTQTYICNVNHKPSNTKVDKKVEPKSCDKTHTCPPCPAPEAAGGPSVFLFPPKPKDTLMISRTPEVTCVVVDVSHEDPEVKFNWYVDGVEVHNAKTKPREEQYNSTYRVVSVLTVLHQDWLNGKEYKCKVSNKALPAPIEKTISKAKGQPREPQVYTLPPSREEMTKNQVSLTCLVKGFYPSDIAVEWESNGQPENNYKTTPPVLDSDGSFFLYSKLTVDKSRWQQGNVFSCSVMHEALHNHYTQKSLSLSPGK
light: DIQMTQSPSSLSASVGDRVTITCRASQDVSTAVAWYQQKPGKAPKLLIYSASFLYSGVPSRFSGSGSGTDFTLTISSLQPEDFATTYYCQQSYTGTVTFGQGTKVEIKRTVAAPDIQMTQSPSSLSASVGDRVTITCRASQDVSTAVAWYQQKPGKAPKLLIYSASFLYSGVPSRFSGSGSGTDFTLTISSLQPEDFATYYCQQSYTTPPTFGQGTKVEIKRTVAAPSVFIFPPSDEQLKSGTASVVCLLNNFYPREAKVQWKVDNALQSGNSQESVTEQDSKDSTYSLSSTLTLSKADYEKHKVYACEVTHQGLSSPVTKSFNRGEC
notes: DVD-Ig; N-term; VD AB015 (DLL4), C-term; VD AB070 (VEGF); HC linker long, LC linker short; also called DVD477H; DVD477L
B14: DVD471 (bispecific antibody, human IgG1, kappa, L234A L235A)
heavy: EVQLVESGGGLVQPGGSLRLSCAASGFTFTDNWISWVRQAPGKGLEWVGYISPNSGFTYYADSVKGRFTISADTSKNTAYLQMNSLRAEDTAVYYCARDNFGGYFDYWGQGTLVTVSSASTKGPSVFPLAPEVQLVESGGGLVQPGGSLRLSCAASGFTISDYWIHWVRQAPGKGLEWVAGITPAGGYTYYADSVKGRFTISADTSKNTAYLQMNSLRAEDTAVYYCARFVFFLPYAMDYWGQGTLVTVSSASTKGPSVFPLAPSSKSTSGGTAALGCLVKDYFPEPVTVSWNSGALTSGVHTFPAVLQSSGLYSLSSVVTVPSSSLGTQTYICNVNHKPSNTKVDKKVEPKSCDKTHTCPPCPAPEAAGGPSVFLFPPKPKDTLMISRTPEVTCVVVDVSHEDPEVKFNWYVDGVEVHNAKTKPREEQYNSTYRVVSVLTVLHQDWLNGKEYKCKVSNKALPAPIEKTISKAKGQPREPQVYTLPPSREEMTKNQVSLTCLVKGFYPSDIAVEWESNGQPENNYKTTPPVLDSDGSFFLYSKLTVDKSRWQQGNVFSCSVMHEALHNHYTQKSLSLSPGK
light: DIQMTQSPSSLSASVGDRVTITCRASQDVSTAVAWYQQKPGKAPKLLIYSASFLYSGVPSRFSGSGSGTDFTLTISSLQPEDFATTYYCQQSYTGTVTFGQGTKVEIKRTVAAPSVFIFPPDIQMTQSPSSLSASVGDRVTITCRASQDVSTAVAWYQQKPGKAPKLLIYSASFLYSGVPSRFSGSGSGTDFTLTISSLQPEDFATYYCQQSYTTPPTFGQGTKVEIKRTVAAPSVFIFPPSDEQLKSGTASVVCLLNNFYPREAKVQWKVDNALQSGNSQESVTEQDSKDSTYSLSSTLTLSKADYEKHKVYACEVTHQGLSSPVTKSFNRGEC
notes: DVD-Ig; N-term; VD AB015 (DLL4), C-term; VD AB070 (VEGF); HC linker long, LC linker long; also called DVD471H; DVD471L
B15: DVD483 (bispecific antibody, human IgG1, kappa)
heavy: not shown
light: DIQMTQSPSSLSASVGDRVTITCRASQDVSTAVAWYQQKPGKAPKLLIYSASFLYSGVPSRFSGSGSGTDFTLTISSLQPEDFATTYYCQQSYTGTVTFGQGTKVEIKRTVAAPSVFIFPPDIQMTQSPSSLSASVGDRVTITCRASQDVSTAVAWYQQKPGKAPKLLIYSASFLYSGVPSRFSGSGSGTDFTLTISSLQPEDFATYYCQQSYTTPPTFGQGTKVEIKRTVAAPSVFIFPPSDEQLKSGTASVVCLLNNFYPREAKVQWKVDNALQSGNSQESVTEQDSKDSTYSLSSTLTLSKADYEKHKVYACEVTHQGLSSPVTKSFNRGEC
notes: DVD-Ig; N-term; VD AB015 (DLL4), C-term; VD AB070 (VEGF); HC linker short, LC linker long; also called DVD483H; DVD483L

Target: T1, VEGF (UniProt P15692-4 27-191)
T1 construct: Bought reagent; also called vascular endothelial growth factor
T1 sequence (P15692 other isoform, or with tags, fused parts or gaps limits assumed): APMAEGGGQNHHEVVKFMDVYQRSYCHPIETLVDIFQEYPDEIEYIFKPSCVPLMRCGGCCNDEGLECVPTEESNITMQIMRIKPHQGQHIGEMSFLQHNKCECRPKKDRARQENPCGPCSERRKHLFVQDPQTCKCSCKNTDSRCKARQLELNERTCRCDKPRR
Experiment: SPR (Biacore), DVD-Ig captured, VEGF in solution

Binder	Kd [nM]	koff [s⁻¹]	kon [M⁻¹ s⁻¹]
B1	0.781	0.00028	358000
B2	0.413	0.00016	388000
B3	0.0499	7.6e-06	152000
B4	0.000941	1.52e-07	162000
B5	0.000155	1.61e-08	104000
B6	0.00077	7.22e-08	93700
B7	0.45	0.00022	489000
B8	0.449	0.000168	374000
B9	0.000281	3.39e-08	121000
B10	0.176	2.85e-05	162000
B11	0.0733	1.2e-05	164000
B12	1.19	0.000414	348000
B13	1.02	0.000254	249000
B14	0.917	0.000232	253000
B15	0.963	0.000872	905000
